# Laboratory results as given in the nanobody polyreactivity screen of Harvey et al. (2022).
# Assay: yeast display, Sf9 membrane polyspecificity reagent, FACS + sequencing; frameworks hold sequencing errors
# In short: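 After 36–48 hours of galactose induction, yeast (Saccharomyces cerevisiae BJ5465) displaying a synthetic nanobody library were stained at 4 °C for 1 hour with 10% biotinylated, detergent-solubilized Sf9 membrane reagent. Streptavidin microbeads enriched the stained cells before FACS sorting into low and high (top ~1%) gates on anti-HA and streptavidin fluorescence. Each clone's polyreactivity label reflects its gate of origin.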
row,Sequence,polyreactivity (PSR sort gate)
1,QVQLVESGGGLVQAGGSLRLSCAASGFIFPVYTMGWYRQAPGKERELVAAITQIGGSTHYADSVTGRFTISRDNAKNTVYLQMNSLKPEDTAVYYCNAVPSYGTEYDYWGQGTQVTVSS,low polyreactivity
2,QVQLVESGGGLVQAGGSLRLSCAASGFIFPYYAMGWYRQAPGQERELVAAITGGGSRTYYADSVKGRFTISRDNAKNTVYLQMNSLKPEDTAVYYCAKGLSTGRAYRGYDYWGQGTQVTVSS,high polyreactivity
3,QVQLVESGGGLVQAGGSLRLSCAASGFIFQGYTMGWYRQAAGKERELVAAITSSGRTYYADSVKGRFTISRDNAKNTVYLQMNSLKPEDTAVYYCNADFLPSVANDYWGQGTQVTVSS,low polyreactivity
4,QVQLVESGGGLVQAGGSLRLSCAASGFIFQHYAMGWYRQAPGKERELVAAISKSGGSTYYADSVKGRFTISRDNAKNTVYLQMNSLKPEDTAVYYCAKVAVAGRGSGNYINHRFDYWGQGTQVTVSS,high polyreactivity
5,QVQLVESGGGLVQAGGSLRLSCAASGFIFQPYAMGWYRQAPGKERELVAAITSRGGRTYYADSVKGRFTISRDNAMNTVYLLMNSLKPEDTAVYYCAKRYAVYVTHFSRIRWYNYWGQGTQVTVSS,low polyreactivity
6,QVQLVESGGGLVQAGGSLRLSCAASGFIFQPYAMGWYRQAPVKERELVAAITSRGGRTYYADSVKGRFTISRDNAKNTVYLQMNSLKPEDTAVYYCNADIYASEYYYWGQGTQVTVSS,low polyreactivity
7,QVQLVESGGGLVQAGGSLRLSCAASGFIFQRYAMGWYRQAPGKERELVAAITRTGGRTYYADSVKGRFTISRDNAKNTVYLQMNSLKPEDTAVYYCAADRTLSYEYWGQGTQVTVSS,high polyreactivity
8,QVQLVESGGGLVQAGGSLRLSCAASGFIFQSYAMGWYRQAPGKERELVASITRSGGSTYYADSVKGRFTISRDNAKNTVYLQMNSLKPEDTAVYYCNTYRNHYGWRKFNYWGQGTQVTVSS,high polyreactivity
9,QVQLVESGGGLVQAGGSLRLSCAASGFIFQTNVMGWYRQAPGKERELVAAISSGDSTYYADSVKGRFTISRDNAKNTVYLQMNSLKPEDTAVYYCAARRGTGSYSYRYPYGYDYWGQGTQVTVSS,low polyreactivity
10,QVQLVESGGGLVQAGGSLRLSCAASGFIFQYYAMGWYREAPGKERELVAAISKTGGSTYYADSVKGRFTISRDNAKNTVYLQMNSLKPEDTAVYYCAVARSAYYRGNHWGQGSQVTVSS,high polyreactivity
11,QVQLVESGGGLVQAGGSLRLSCAASGFIFQYYAMGWYRQAPGKERELVAAITSGGTTYYADSVKGRFTISRDNAKNTVYLQMNSLKPEDTAVYYCAAVFVNFYARFDYWGQGTQVTVSS,low polyreactivity
12,QVQLVESGGGLVQAGGSLRLSCAASGFIFRDNTMGWYRQAPGKEREFVAGITKSGGSTYYADSVKGRFTISRDNAKNTVYLQMNSLKPEDTAVYYCAAYVPYTRYDYWGQGTQVTVSS,high polyreactivity
13,QVQLVESGGGLVQAGGSLRLSCAASGFIFRDYAMGWYRQAPGKERELVAAIDYSGGSTNYADSVKGRFTISRDNAKNTVYLQMNSLKPEDTAVYYCNAEYTWHRGYEYWGQGTQVTVSS,low polyreactivity
14,QVQLVESGGGLVQAGGSLRLSCAASGFIFRDYVMGWYRQAPGKERELVAAISYRGGSTNYADSVKGRFTISRDNAKNTVYLQMNSLKPEDTAVYSCAADQVHKREYDYWGQGTQVTVSS,low polyreactivity
15,QVQLVESGGGLVQAGGSLRLSCAASGFIFRGNAMGWYRQAPGKERELVAAISKRGGSTNYADSVKGRFTISRDNAKNTVYLQMNSLKPEDTAVYYCNAEGIYRQPRGYVYRYDYWGQGTQVTVSS,high polyreactivity
16,QVQLVESGGGLVQAGGSLRLSCAASGFIFRGYAMGWYRQPPGKERELVATITNGGSTYYADSVKGRFTISRDNAKNTVYLQMNSLKPEDTAVYFCAAVTKFGEYAPGSKGYGYWGQGSQVTVSS,low polyreactivity
17,QVQLVESGGGLVQAGGSLRLSCAASGFIFRIYAMGWYRQAPGKERELVAAITWDGVSTYYADSVKGRFTISRDNAKNTVYLQMNSLKPEDTAVYYCAARKRSYPYYYWGQGTQVTVSS,high polyreactivity
18,QVQLVESGGGLVQAGGSLRLSCAASGFIFRNYAMGWSRQAPGKERELVAAITRSGTSTYYADSVKGRFTISRDNAKNTVYLQMNSLKPEDTAVYYCNAGWGLRLSWLGNYWGQGTQVTVSS,high polyreactivity
19,QVQLVESGGGLVQAGGSLRLSCAASGFIFRPYVMGWYRQAPGKERELVAAISRSGSSTYYADSVKGRFTISRDNAKNTVYLQMNSLQPEDTAVYYCARRTSQEFDYWGQGTQVTVSS,high polyreactivity
20,QVQLVESGGGLVQAGGSLRLSCAASGFIFRQNAMGWYRQAPGKERELVAAITSSGGRTYYADSVKGRFTISRDNAKNTVYLQMNSLKPEDTAVYYCARRDYWGQGTQVTVSS,high polyreactivity
21,QVQLVESGGGLVQAGGSLRLSCAASGFIFRRNAMGWSRQAPRKERELVAAISSRGGTTYYADSVKGRFTISRDNAKNTVYLQMNSLKPEDTAVYYCNAVKFGATAYDYWGQGTQVTVSS,high polyreactivity

row,Sequence,polyreactivity (PSR sort gate)
1,QVQLVESGGGLVQAGGSLRLSCAASGFIFRRNAMGWYRQAPGKERELVASIRSGGSTKYADSVKGRFTISRDNAKNTVYLQMNSLKPEDTAVYYCAKDRYHISFFYQMEYWGQGTQVTVSS,low polyreactivity
2,QVQLVESGGGLVQAGGSLRLSCAASGFIFRRYAMGSYRQAPGKERELVAAISGSGGRTYYADSVKGRFTISRDNAKNTVYLQMNSLKPEDTAVYYCAADHGSLLYDYWGQGTQVTVSS,high polyreactivity
3,QVQLVESGGGLVQAGGSLRLSCAASGFIFRRYAMGWYRQAPGKERELVAAISGRGASTYYGDSVKGRFTISRDNAKNNVYVQMNSLKPEDTAAYYCNAVPDNLNYDYWGQGTQVTVSS,high polyreactivity
4,QVQLVESGGGLVQAGGSLRLSCAASGFIFRRYAMGWYRQPPGKERELVAAISGSGGRTYYADSVKGRFTISRDNAKNTVYLQMNSLKPEDTAVYYCAADHGSLLYDYWGQGTQVTVSS,high polyreactivity
5,QVQLVESGGGLVQAGGSLRLSCAASGFIFRRYTMGWYTQAPGKERELVATITRSVNTDYADSVKGRFTISRDNAKNTVYLQMNSLKPEDTAVYYCAARKYYYFPVAYDYWGQGTQVTVSS,high polyreactivity
6,QVQLVESGGGLVQAGGSLRLSCAASGFIFRSYAMGWYRQAPGKEREFVAAITTRGTGTYYADSVKGRFTISRDNAKNTVYLQMNSLKPEDTAVYDCAARRGWGDDYWGQGTQVTVSS,high polyreactivity
7,QVQLVESGGGLVQAGGSLRLSCAASGFIFRSYAMGWYRQAPGKEREFVASISSRGGTTYYADSVKGRFTISRDNAKNTVYLQMNSLKTEDTAVYYCYAKRRYGPDKYDYWGQGTQVTVSS,high polyreactivity
8,QVQLVESGGGLVQAGGSLRLSCAASGFIFRSYAMGWYRQAPGKERELVAAISRSGGSTYYADSVKGRFTISRDNAKNTVYLQMNSLKPEDTAVYYCNTARRDREVDYWGQGTQVTVSS,high polyreactivity
9,QVQLVESGGGLVQAGGSLRLSCAASGFIFRSYAMGWYRQAPGKERELVAVISRRGVNTHYADSVKGRFTISRDNAKNTVNLQMNSLKPEDTAVYYCAKGLTALGDYWGQGTQVTVSS,high polyreactivity
10,QVQLVESGGGLVQAGGSLRLSCAASGFIFRSYDMGWYRQAPGKERELVAAITRGGRTYYADSVKGRFTISRDNAKNTVYLQMNSLKPEDTAVYYCAARGTHVADGYYWGQGTQVTVSS,high polyreactivity
11,QVQLVESGGGLVQAGGSLRLSCAASGFIFRSYVMGWYRQAPGKEREFVAVITSSGGRTYYADSVKGRFTISRDNAKNTVYLQMNSLKPEDTAVYYCAATRRYPPRRVWYDYWGQGTEVTVSS,high polyreactivity
12,QVQLVESGGGLVQAGGSLRLSCAASGFIFRTYAMGWYRQAPGKERELVATITGDGSTNYADSVKGRFTISRDNAKNTVYLQMNSLKPEDTAVYYCSRDDRLAGDYWGQGTQVTVSS,low polyreactivity
13,QVQLVESGGGLVQAGGSLRLSCAASGFIFRVNAMGWYRQAPGKERELVATITWNGGSTYYADSVKGRFTISRDNAKNTVYLQMNSLKPEDTAVYYCNRVRYRGYYPGPYSYSYDYWGQGTQVTVSS,low polyreactivity
14,QVQLVESGGGLVQAGGSLRLSCAASGFIFRVYTMVWYRQAPGKERELVAAISYRGGRTYYADSVKGRFTISRDNAKNTVFLQMNSLKPEDTAVYYCAADRVNREFDYWGQGTQVTVSS,high polyreactivity
15,QVQLVESGGGLVQAGGSLRLSCAASGFIFRWYAMGWYRQAPGKERDLVATISSGGSTYYADSVKGRFTISRDNAMNTFYLQMISLKPEDTAVYYCAARFHYRGALYYYWGQGTQVTVSS,high polyreactivity
16,QVQLVESGGGLVQAGGSLRLSCAASGFIFRWYAMGWYRQAPGKERELVAAISRSGDSTYYADSVKGRFTISRDNAKNTVYLQMNSLKPEETAVYYCAADDRYYTYGYDYWGQGTQVTVSS,low polyreactivity
17,QVQLVESGGGLVQAGGSLRLSCAASGFIFRYNAMGWYRQAPGKEREFVAAISQGGASTYYADSVKGRFTISRVNAKNTVYLQINSLKPEDTAVYYCAREPSIFTPSYDYWGQGTQVTVSS,low polyreactivity
18,QVQLVESGGGLVQAGGSLRLSCAASGFIFRYNAMGWYRQAPGKERELVAAIDSGGSTYYADSVKGRFTISRDNAKNTVYLQMNSLKPEDTAVYYCNAVHEASYAGVDYWGQGTQVTVSS,low polyreactivity
19,QVQLVESGGGLVQAGGSLRLSCAASGFIFRYNAMGWYRQAPGKERELVAAISWNGGRTYYADSVKGRFTISRDNAKNTVYLQMNSLKPEDTAVYYCAAELSSYFFSAGYDYWGQGTQVTVSS,high polyreactivity
20,QVQLVESGGGLVQAGGSLRLSCAASGFIFRYNAMGWYRQAPGKERELVAVITSGDNTYYADSVKGRFTISRDNAKNTVYLQMNSLKPEDTAVYYCAARYRHYFVRGGYWGQGTQVTVSS,high polyreactivity
